Experimental data reported in PMC7137635, “Disrupting the LC3 Interaction Region (LIR) Binding of Selective Autophagy Receptors Sensitizes AML Cell Lines to Cytarabine” (Frontiers in Cell and Developmental Biology, 2020).
Non-standard residues stand in square brackets, D forms with d. No end group written: not given here. *: point of attachment. Biotin = O=C1N[C@H]2[C@H](CS[C@H]2CCCCC(=O)*)N1; pS = N[C@@H](COP(=O)(O)O)C(=O)O

B1: pS177 OPTN LIR peptide (172-186), biotinylated (peptide)
peptide: Biotin-GSSED[pS]FVEIRMAEG
notes: also called pS177 OPTN (172–186); pS177 OPTN peptide; source: synthetic peptide (GenScript, over 75% purity)
B2: p62 LIR peptide (332-346), biotinylated (peptide)
peptide: Biotin-SGGDDDWTHLSSKEV
notes: human p62/SQSTM1 LIR peptide, residues 332-346; also called p62 (332–346); source: synthetic peptide (GenScript, over 75% purity)
B3: OPTN LIR peptide (172-186), biotinylated (peptide)
peptide: Biotin-GSSEDSFVEIRMAEG
notes: human optineurin (OPTN) LIR peptide, residues 172-186; also called OPTN (172–186); OPTN peptide; source: synthetic peptide (GenScript, over 75% purity)

How the values were obtained:
[1] = molecular target: HIS-tagged LC3Bwt (aa 1-119) (human, UniProt Q9GZQ8 1-119); assay: BLI; Octet RED96; N-terminally biotinylated peptides on streptavidin biosensors, quenched with biocytin; HIS-tagged LC3B/GATE-16 proteins as analyte, 6.8 nM to 5 μM (LC3Bwt on NDP52 peptide: 312.5 nM to 20 μM); DPBS with 150 mM NaCl, 1% BSA, 0.02% Tween 20; 1:1 global fit; conditions: both partners purified
[2] = molecular target: HIS-tagged GATE-16wt (aa 1-115) (human, UniProt P60520 1-115); assay: as above; conditions: both partners purified
Chain of HIS-tagged GATE-16wt (aa 1-115) (P60520 1-115): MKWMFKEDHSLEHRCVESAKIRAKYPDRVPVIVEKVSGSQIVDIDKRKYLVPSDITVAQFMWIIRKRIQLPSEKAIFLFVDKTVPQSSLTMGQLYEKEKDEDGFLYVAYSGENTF

Row | Binder | Kd [1] [µM] | binding result [2]
1 | B1 | 0.8 ± 0.048 | 
2 | B2 |  | binds
3 | B3 | 8.4 | 
